The experiment addresses T1, Recombinant MBP-mutCALR Type 1 fusion protein (human).
T1 construct: custom made at Cepter; also called recombinant mutCALR protein
In words: SPR, IgG captured, 1:1 fit, Exp. 2. Here is the method: Experiment 2: Recombinant MBP-mutCALR Type 1 fusion protein was custom made at Cepter (cepterbiopartners.com). Data for the interaction of antibodies with recombinant mutCALR protein were collected at 25° C. on a Biacore 8K instrument (Cytiva, Marlborough, Mass.), and all reagents were obtained from Cytiva unless otherwise specified. The experiments were conducted using Tris-buffered saline (pH 7.2), 0.005% Surfactant P20, 1 mM CaCl₂) as running buffer. To prepare the capture surfaces, anti-human IgG (Fc) antibodies (Product #29234600) was amine-coupled onto a CM4 chip (Product #BR100534) under standard conditions using an Amine Coupling Kit (Product #BR100050). […] The kinetics parameters were obtained by applying 1:1 binding model to fit the data from multiple-cycle injection experiments using Biacore Insight Evaluation software.

One may read the Kd as a measure of binding affinity in units of concentration. What is called koff is a measure of how fast the partners let go of each other. The kon is a measure of how fast the partners come together.

Where a chain is given by its changes, count along the chain named. Names and notes keep the numbering of the source.

B1: anti-mutCALR antibody clone 75 (antibody, human IgG1, lambda, N297A, V domains shown)
VH: EVQLVQSGAEVKKPGASVKVSCKVSGYTLTELSMQWVRQAPGKGLEWMGGFDPDDGETMYAEKFQGRLTVTEDTSTDTVYMELRSLTSEDTALYFCATSPGYDFFDYWGQGTLVTVSS
VL: SYVLTQPPSVSVAPGKTARITCGGNNIGSKSVHWYQQKPGQAPVLVVYDDSDRPSGIPERFSGSNSGNTATLTISRVEAGDEADYYCQVWDSSNDLLIFGGGTKLTVLG
notes: human IgG1 N297A variant of clone 6
B1: the Kd was 0.637 nM, the koff was 0.0039 s⁻¹ and the kon was 6.12e+06 M⁻¹ s⁻¹.

B2: anti-mutCALR antibody clone 135 (antibody, human IgG1, lambda, N297A, V domains shown)
VH: B1 VH with D55A
VL: B1 VL with N25D
notes: human IgG1 N297A variant of clone 15
As to B2, the Kd is 5.17 nM, the koff is 0.00512 s⁻¹ and the kon was determined as 991000 M⁻¹ s⁻¹.

B3: anti-mutCALR antibody clone 82 (antibody, human IgG1, lambda, N297A, V domains shown)
VH: B1 VH with D55S, R84S, T87R, L93V
VL: B1 VL
notes: as for B1
For B3, the Kd is 6.23 nM, the dissociation rate constant (koff) was 0.00475 s⁻¹ and the kon came to 762000 M⁻¹ s⁻¹.

B4: anti-mutCALR antibody clone 81 (antibody, human IgG1, lambda, N297A, V domains shown)
VH: B1 VH with D55A, R84S, T87R, L93V
VL: B1 VL
notes: as for B1
As to B4, the Kd turned out to be 6.62 nM, the off-rate constant (koff) amounted to 0.00494 s⁻¹ and the on-rate constant (kon) stood at 746000 M⁻¹ s⁻¹.

B5: anti-mutCALR antibody clone 134 (antibody, human IgG1, lambda, N297A)
heavy: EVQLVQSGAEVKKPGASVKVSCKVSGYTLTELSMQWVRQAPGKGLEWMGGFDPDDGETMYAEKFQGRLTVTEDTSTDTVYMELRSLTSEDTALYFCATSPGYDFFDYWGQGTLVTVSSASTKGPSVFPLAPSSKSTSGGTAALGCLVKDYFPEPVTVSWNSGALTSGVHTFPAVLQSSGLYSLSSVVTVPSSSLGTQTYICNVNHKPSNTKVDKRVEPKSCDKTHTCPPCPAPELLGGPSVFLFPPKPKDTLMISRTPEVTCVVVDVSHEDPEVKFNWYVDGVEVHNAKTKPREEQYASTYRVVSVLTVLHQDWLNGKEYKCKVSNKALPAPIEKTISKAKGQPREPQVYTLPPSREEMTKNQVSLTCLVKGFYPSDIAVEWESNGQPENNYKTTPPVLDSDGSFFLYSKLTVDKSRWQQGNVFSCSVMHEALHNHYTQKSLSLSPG
light: SYVLTQPPSVSVAPGKTARITCGGDNIGSKSVHWYQQKPGQAPVLVVYDDSDRPSGIPERFSGSNSGNTATLTISRVEAGDEADYYCQVWDSSNDLLIFGGGTKLTVLGQPKAAPSVTLFPPSSEELQANKATLVCLISDFYPGAVTVAWKADSSPVKAGVETTTPSKQSNNKYAASSYLSLTPEQWKSHRSYSCQVTHEGSTVEKTVAPTECS
notes: as for B2
As for B5, the Kd is 1.12 nM, the koff is 0.00142 s⁻¹ and the kon worked out at 1.27e+06 M⁻¹ s⁻¹.

B6: anti-mutCALR antibody clone 137 (antibody, human IgG1, lambda, N297A, V domains shown)
VH: B1 VH with D55E
VL: B1 VL with N25D
notes: as for B2
Turning to B6, the Kd came out at 1.27 nM, the koff was determined as 0.0095 s⁻¹ and the on-rate constant (kon) stood at 7.51e+06 M⁻¹ s⁻¹.

B7: anti-mutCALR antibody clone 83 (antibody, human IgG1, lambda, N297A, V domains shown)
VH: B1 VH with D55E, R84S, T87R, L93V
VL: B1 VL
notes: as for B1
Take B7: the Kd was found to be 1.76 nM, the koff was determined as 0.00992 s⁻¹ and the kon worked out at 5.62e+06 M⁻¹ s⁻¹.

B8: anti-mutCALR antibody clone 76 (antibody, human IgG1, lambda, N297A, V domains shown)
VH: B1 VH with D55A
VL: B1 VL
notes: as for B1
Regarding B8, the Kd turned out to be 4.9 nM, the koff was 0.0155 s⁻¹ and the kon came to 3.16e+06 M⁻¹ s⁻¹.

B9: anti-mutCALR antibody clone 141 (antibody, human IgG1, lambda, N297A, V domains shown)
VH: B1 VH with D55S, R84S, T87R, L93V
VL: B1 VL with N25D
notes: as for B2
With B9, the Kd came to 4.47 nM, the koff is 0.0187 s⁻¹ and the kon was 4.18e+06 M⁻¹ s⁻¹.

B10: anti-mutCALR antibody clone 142 (antibody, human IgG1, lambda, N297A, V domains shown)
VH: B1 VH with D55E, R84S, T87R, L93V
VL: B1 VL with N25D
notes: as for B2
In the case of B10, the Kd was 2.27 nM, the koff was 0.00269 s⁻¹ and the kon was found to be 1.19e+06 M⁻¹ s⁻¹.

B11: anti-mutCALR antibody clone 84 (antibody, human IgG1, lambda, N297A, V domains shown)
VH: B1 VH with G56A, R84S, T87R, L93V
VL: B1 VL
notes: as for B1
For B11, the Kd was found to be 2.01 nM, the koff is 0.0018 s⁻¹ and the on-rate (kon) is 892000 M⁻¹ s⁻¹.

B12: anti-mutCALR antibody clone 129 (antibody, human IgG1, lambda, N297A, V domains shown)
VH: B1 VH with R84S, T87R, L93V
VL: B1 VL with V3E, N25D, S75N
notes: as for B2
For B12, the Kd was determined as 0.53 nM, the koff turned out to be 0.00527 s⁻¹ and the kon is 9.94e+06 M⁻¹ s⁻¹.

B13: anti-mutCALR antibody clone 130 (antibody, human IgG1, lambda, N297A, V domains shown)
VH: B1 VH with D55A, R84S, T87R, L93V
VL: B1 VL with V3E, N25D, S75N
notes: as for B2
Regarding B13, the Kd was 4.71 nM, the koff was determined as 0.00509 s⁻¹ and the kon came to 1.08e+06 M⁻¹ s⁻¹.

B14: anti-mutCALR antibody clone 140 (antibody, human IgG1, lambda, N297A, V domains shown)
VH: B1 VH with D55A, R84S, T87R, L93V
VL: B1 VL with N25D
notes: as for B2
For B14, the Kd stood at 7.09 nM, the koff stood at 0.00541 s⁻¹ and the kon was 763000 M⁻¹ s⁻¹.

B15: anti-mutCALR antibody clone 143 (antibody, human IgG1, lambda, N297A, V domains shown)
VH: B1 VH with G56A, R84S, T87R, L93V
VL: B1 VL with N25D
notes: as for B2
As for B15, the Kd amounted to 1.31 nM, the koff was found to be 0.00753 s⁻¹ and the on-rate constant (kon) came to 5.74e+06 M⁻¹ s⁻¹.

B16: anti-mutCALR antibody clone 133 (antibody, human IgG1, lambda, N297A, V domains shown)
VH: B1 VH with G56A, R84S, T87R, L93V
VL: B1 VL with V3E, N25D, S75N
notes: as for B2
On to B16, for which the dissociation constant (Kd) was found to be 0.826 nM, the koff is 0.00702 s⁻¹ and the kon is 8.51e+06 M⁻¹ s⁻¹.

B17: anti-mutCALR antibody clone 77 (antibody, human IgG1, lambda, N297A, V domains shown)
VH: B1 VH with D55S
VL: B1 VL
notes: as for B1
Turning to B17, the Kd is 5.61 nM, the koff was found to be 0.0175 s⁻¹ and the kon worked out at 3.13e+06 M⁻¹ s⁻¹.

B18: anti-mutCALR antibody clone 138 (antibody, human IgG1, lambda, N297A, V domains shown)
VH: B1 VH with G56A
VL: B1 VL with N25D
notes: as for B2
With B18, the Kd is 0.875 nM, the koff turned out to be 0.00688 s⁻¹ and the kon was 7.86e+06 M⁻¹ s⁻¹.

B19: anti-mutCALR antibody clone 126 (antibody, human IgG1, lambda, N297A, V domains shown)
VH: B1 VH with D55S
VL: B1 VL with V3E, N25D, S75N
notes: as for B2
With B19, the Kd was found to be 1.19 nM, the koff worked out at 0.00153 s⁻¹ and the kon was 1.29e+06 M⁻¹ s⁻¹.

B20: anti-mutCALR antibody clone 80 (antibody, human IgG1, lambda, N297A, V domains shown)
VH: B1 VH with R84S, T87R, L93V
VL: B1 VL
notes: as for B1
As to B20, the Kd was found to be 0.638 nM and the koff worked out at 0.00248 s⁻¹.

B21: anti-mutCALR antibody clone 125 (antibody, human IgG1, lambda, N297A, V domains shown)
VH: B1 VH with D55A
VL: B1 VL with V3E, N25D, S75N
notes: as for B2
With B21, the Kd came to 4.76 nM, the off-rate (koff) came to 0.0154 s⁻¹ and the kon was determined as 3.23e+06 M⁻¹ s⁻¹.

B22: anti-mutCALR antibody clone 79 (antibody, human IgG1, lambda, N297A, V domains shown)
VH: B1 VH with G56A
VL: B1 VL
notes: as for B1
As to B22, the Kd is 1.39 nM, the koff is 0.00631 s⁻¹ and the kon came out at 4.53e+06 M⁻¹ s⁻¹.

B23: anti-mutCALR antibody clone 131 (antibody, human IgG1, lambda, N297A, V domains shown)
VH: B1 VH with D55S, R84S, T87R, L93V
VL: B1 VL with V3E, N25D, S75N
notes: as for B2
Turning to B23, the dissociation constant Kd worked out at 4.83 nM, the koff was determined as 0.00481 s⁻¹ and the kon is 996000 M⁻¹ s⁻¹.

B24: anti-mutCALR antibody clone 78 (antibody, human IgG1, lambda, N297A, V domains shown)
VH: B1 VH with D55E
VL: B1 VL
notes: as for B1
As for B24, the Kd is 2.75 nM, the dissociation rate constant (koff) amounted to 0.0024 s⁻¹ and the on-rate (kon) turned out to be 873000 M⁻¹ s⁻¹.

B25: anti-mutCALR antibody clone 136 (antibody, human IgG1, lambda, N297A, V domains shown)
VH: B1 VH with D55S
VL: B1 VL with N25D
notes: as for B2
Regarding B25, the Kd came out at 6.7 nM, the koff came to 0.00507 s⁻¹ and the on-rate (kon) was found to be 756000 M⁻¹ s⁻¹.

B26: anti-mutCALR antibody clone 139 (antibody, human IgG1, lambda, N297A, V domains shown)
VH: B1 VH with R84S, T87R, L93V
VL: B1 VL with N25D
notes: as for B2
In the case of B26, the Kd is 0.966 nM, the koff was found to be 0.000953 s⁻¹ and the kon stood at 987000 M⁻¹ s⁻¹.

B27: anti-mutCALR antibody clone 124 (antibody, human IgG1, lambda, N297A)
heavy: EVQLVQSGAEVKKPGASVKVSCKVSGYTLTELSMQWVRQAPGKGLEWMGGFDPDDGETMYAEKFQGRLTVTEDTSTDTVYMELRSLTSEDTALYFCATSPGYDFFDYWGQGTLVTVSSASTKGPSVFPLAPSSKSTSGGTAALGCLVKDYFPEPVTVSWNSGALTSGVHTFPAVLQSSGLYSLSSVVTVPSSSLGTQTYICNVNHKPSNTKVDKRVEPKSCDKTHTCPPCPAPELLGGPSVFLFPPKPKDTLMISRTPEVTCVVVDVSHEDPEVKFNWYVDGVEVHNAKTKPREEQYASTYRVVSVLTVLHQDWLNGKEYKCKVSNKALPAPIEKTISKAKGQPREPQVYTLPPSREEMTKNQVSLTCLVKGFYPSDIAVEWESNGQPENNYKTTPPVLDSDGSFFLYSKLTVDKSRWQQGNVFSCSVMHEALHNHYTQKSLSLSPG
light: B5 light with V3E, S75N
notes: as for B2
Regarding B27, the equilibrium dissociation constant (Kd) stood at 1.04 nM, the koff stood at 0.00128 s⁻¹ and the kon came out at 1.23e+06 M⁻¹ s⁻¹.

B28: anti-mutCALR antibody clone 128 (antibody, human IgG1, lambda, N297A, V domains shown)
VH: B1 VH with G56A
VL: B1 VL with V3E, N25D, S75N
notes: as for B2
Turning to B28, the Kd amounted to 1.61 nM, the koff was 0.00207 s⁻¹ and the on-rate constant (kon) came to 1.29e+06 M⁻¹ s⁻¹.

B29: anti-mutCALR antibody clone 132 (antibody, human IgG1, lambda, N297A, V domains shown)
VH: B1 VH with D55E, R84S, T87R, L93V
VL: B1 VL with V3E, N25D, S75N
notes: as for B2
For the molecule B29, the Kd was 2.16 nM, the koff turned out to be 0.00244 s⁻¹ and the kon was 1.13e+06 M⁻¹ s⁻¹.

The values above are taken from patent US20230272055A1 (Incyte, published 2023).
